Substitutions are numbered along the chain they refer to.
T1: human GPC5 overexpressed on K562 cells (human) (UniProt P78333)
T1 sequence (looked up): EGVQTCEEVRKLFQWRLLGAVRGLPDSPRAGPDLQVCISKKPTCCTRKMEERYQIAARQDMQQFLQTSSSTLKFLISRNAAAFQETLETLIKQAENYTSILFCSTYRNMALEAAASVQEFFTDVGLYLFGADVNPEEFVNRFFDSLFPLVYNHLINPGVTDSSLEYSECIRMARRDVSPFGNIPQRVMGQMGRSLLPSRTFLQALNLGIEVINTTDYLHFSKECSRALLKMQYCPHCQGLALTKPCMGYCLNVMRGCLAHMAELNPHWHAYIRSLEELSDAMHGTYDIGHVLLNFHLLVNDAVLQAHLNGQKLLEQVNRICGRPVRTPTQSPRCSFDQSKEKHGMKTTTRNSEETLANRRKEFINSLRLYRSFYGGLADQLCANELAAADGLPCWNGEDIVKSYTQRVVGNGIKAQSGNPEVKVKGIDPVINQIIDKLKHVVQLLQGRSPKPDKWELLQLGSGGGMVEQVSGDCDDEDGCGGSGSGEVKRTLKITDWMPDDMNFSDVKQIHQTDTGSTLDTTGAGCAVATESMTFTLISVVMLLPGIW

B1: hmAb1-2 CAR (protein, part only; not given: hinge, transmembrane and signaling domains, part only)
chain, part: QVQLVQSGAEVKKPGASVKVSCKASGYTFTDYYIHWVRQAPGQGLEWMGEIYPGSGNTYYAQKFQGRVTMTRDTSTSTVYMELSSLRSEDTAVYYCARGNDYDAWFVYWGQGTLVTVSSGSTSGSGKPGSGEGSTKGDIVMTQSPDSLAVSLGERATINCKSSQSLLNSGTRKNYLAWYQQKPGQPPKLLIYWASIRESGVPDRFSGSGSGTDFTLTISSLQAEDVAVYYCKQSYSLYTFGQGTKLEIK
B2: hmAb1-4 CAR (protein, part only; not given: hinge, transmembrane and signaling domains, part only)
chain, part: B1 chain, part with A24T, M48I, V68A, M70L, R72A, V79A, L83F
B3: hmAb1-1 CAR (protein, part only; not given: hinge, transmembrane and signaling domains, part only)
chain, part: B1 chain, part with A24T, R72A, V79A, A156V, I158M, L221V
B4: hmAb1-5 CAR (protein, part only; not given: hinge, transmembrane and signaling domains, part only)
chain, part: B1 chain, part with A24T, M48I, V68A, M70L, R72A, V79A, L83F, A156V, I158M, L221V
B5: mAb1-1 scFv-Fc (single chain variable fragment fused to a murine IgG2A fragment crystallizable domain) (Fc fusion)
chain: B1 chain, part with A24T, R72A, V79A, A156V, I158M, L221V
notes: also called mAb1-1 scFv mFc; not shown: murine IgG2A fragment crystallizable (Fc) domain
B6: hmAb1-3 CAR (protein, part only; not given: hinge, transmembrane and signaling domains, part only)
chain, part: B1 chain, part with A24T, R72A, V79A
B7: mAb1-1_DNR2 CAR (mAb1-1 CAR co-expressed with TGFbDNR2) (protein, part only; not given: CAR signaling domains and DN TGFbR2, part only)
chain, part: B1 chain, part with A24T, R72A, V79A, A156V, I158M, L221V

Assays:
[1] = molecular target: T2, recombinant human GPC3(Q25-H559)-6xHis (human, UniProt P51654 25-559); assay: BLI (Octet Red96), scFv mFc captured on an AMC biosensor, rhGPC3 lot 2 at a single 500 nM concentration, 1:1 model
T2 construct: range 25-559; also called rhGPC3; RhGPC3

[2] = molecular target: T1, human GPC5 overexpressed on K562 cells (human); assay: cell-based or functional assay
[3] = molecular target: mouse GPC3 overexpressed on K562 cells (mouse) (UniProt Q8CFZ4); assay: cell-based or functional assay
[4] = molecular target: human GPC3 (glypican 3), full length, on cells (human) (UniProt P51654); assay: cell-based or functional assay
[5] = molecular target: T2, recombinant human GPC3(Q25-H559)-6xHis; assay: BLI (Octet Red96), scFv-Fc captured on AMC biosensors, rhGPC3 lot 2 as analyte, 1:1 model, global fit
Description: (§1) A kinetics constant for mAb1-1 scFv mFc binding to its target, GPC3, was determined using a Sartorius Octet Red96 with AMC biosensors. mAb1-1 scFv-Fc was diluted to 2 ug/mL and captured onto 7 AMC biosensor tips under agitation. One biosensor was left blank as a reference. Two lots of recombinant human GPC3(Q25-H559)-6×His (rhGPC3) at 464.3, 154.8, 51.59, 17.2, 5.73, 1.911 and 0 nM were used as analytes. The association phase was measured for 90 sec and the dissociation was measured for 120 sec. All measurements were corrected for baseline drift by subtracting a control sensor exposed to running buffer only. The data were analyzed using a 1:1 interaction model with global fitting for each analyte lot separately, using Octet analysis software.

[6] = molecular target: T2, recombinant human GPC3(Q25-H559)-6xHis; assay: BLI (Octet Red96), scFv-Fc captured on AMC biosensors, rhGPC3 lot 1 as analyte, 1:1 model, global fit
Description: as §1

Sequence of mouse GPC3 overexpressed on K562 cells (mouse) (Q8CFZ4 25-579): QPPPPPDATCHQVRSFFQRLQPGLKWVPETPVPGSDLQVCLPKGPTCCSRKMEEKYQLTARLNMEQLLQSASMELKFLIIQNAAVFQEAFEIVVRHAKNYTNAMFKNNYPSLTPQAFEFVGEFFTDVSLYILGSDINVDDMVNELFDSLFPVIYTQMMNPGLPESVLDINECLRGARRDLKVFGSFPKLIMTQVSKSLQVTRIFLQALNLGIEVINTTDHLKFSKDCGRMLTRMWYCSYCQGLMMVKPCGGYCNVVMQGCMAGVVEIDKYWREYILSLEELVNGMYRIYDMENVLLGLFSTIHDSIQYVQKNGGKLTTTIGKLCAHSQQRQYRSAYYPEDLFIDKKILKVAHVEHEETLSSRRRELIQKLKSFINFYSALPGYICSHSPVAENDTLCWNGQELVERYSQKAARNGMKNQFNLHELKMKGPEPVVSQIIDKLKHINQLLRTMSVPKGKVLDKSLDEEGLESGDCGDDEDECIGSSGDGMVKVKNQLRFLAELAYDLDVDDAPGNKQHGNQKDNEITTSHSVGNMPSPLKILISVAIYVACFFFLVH
Sequence of human GPC3 (glypican 3), full length, on cells (human) (P51654 25-554 limits assumed): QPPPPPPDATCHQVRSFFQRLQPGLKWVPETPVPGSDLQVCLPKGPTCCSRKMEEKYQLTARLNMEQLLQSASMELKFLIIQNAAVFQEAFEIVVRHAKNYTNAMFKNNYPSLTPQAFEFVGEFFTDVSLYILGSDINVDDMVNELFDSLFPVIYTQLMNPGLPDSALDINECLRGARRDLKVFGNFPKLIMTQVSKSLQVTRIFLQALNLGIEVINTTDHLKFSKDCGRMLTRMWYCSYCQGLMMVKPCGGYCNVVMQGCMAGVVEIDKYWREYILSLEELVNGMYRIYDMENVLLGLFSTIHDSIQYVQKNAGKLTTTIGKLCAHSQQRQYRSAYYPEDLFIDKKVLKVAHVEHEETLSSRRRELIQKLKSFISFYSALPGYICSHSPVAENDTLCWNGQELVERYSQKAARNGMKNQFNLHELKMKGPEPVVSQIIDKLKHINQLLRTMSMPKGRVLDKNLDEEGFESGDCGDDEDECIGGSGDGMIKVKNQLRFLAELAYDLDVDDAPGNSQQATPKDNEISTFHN
T2 sequence (P51654 other isoform, or with tags, fused parts or gaps limits assumed, form in doubt): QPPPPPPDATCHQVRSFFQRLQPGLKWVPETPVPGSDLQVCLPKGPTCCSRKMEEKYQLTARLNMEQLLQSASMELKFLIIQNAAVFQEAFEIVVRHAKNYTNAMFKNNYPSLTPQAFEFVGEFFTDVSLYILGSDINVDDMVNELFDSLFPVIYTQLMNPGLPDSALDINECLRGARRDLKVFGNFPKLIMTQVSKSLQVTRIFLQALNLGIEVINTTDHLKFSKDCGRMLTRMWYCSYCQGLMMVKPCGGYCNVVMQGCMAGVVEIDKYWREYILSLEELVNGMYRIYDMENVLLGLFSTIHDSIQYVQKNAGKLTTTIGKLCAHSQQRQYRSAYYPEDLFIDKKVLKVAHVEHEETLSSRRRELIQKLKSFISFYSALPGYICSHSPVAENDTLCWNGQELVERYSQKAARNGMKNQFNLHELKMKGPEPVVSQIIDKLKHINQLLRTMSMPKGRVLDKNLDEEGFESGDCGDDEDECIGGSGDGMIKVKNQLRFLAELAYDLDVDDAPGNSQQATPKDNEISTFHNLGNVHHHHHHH

Molecule	% dead target cells, flow cytometry, 48h, K562-human GPC5 [2] [%]	% dead target cells, flow cytometry, 48h, K562-mouse GPC3 [3] [%]	% cytolysis of Hep3B at 164h, xCELLigence, 500 CAR T cells, Donor 1 [4] [%]	% cytolysis of Hep3B at 164h, xCELLigence, 500 CAR T cells, Donor 2 [4] [%]	% dead target cells, flow cytometry, 48h, Hep3B [4] [%]	further results
YP7 scFv mFc (Fc fusion)						Kd [1]: 8.73 nM; koff [1]: 0.000675 s⁻¹; kon [1]: 77300 M⁻¹ s⁻¹
B1	18.2	48.3	95.7	91.3	89.4	
B2	16.4	52.7	94.9	89.6	89.8	
B3	17.7	53.9	96.4	93.4	91.1	
B4	18.5	52.9	99.3	95	90.5	
B5						Kd [5]: 35.2 nM; koff [5]: 0.00785 s⁻¹; kon [5]: 223000 M⁻¹ s⁻¹; Kd [6]: 32.7 nM; koff [6]: 0.00712 s⁻¹; kon [6]: 218000 M⁻¹ s⁻¹
B6	16.3	50.5	97.1	89.4	89.9	
B7						% cytolysis, xCELLigence, Hep3B, High E:T (1,000 CAR T cells) [4]: 100%; % cytolysis, xCELLigence, Hep3B, Low E:T (500 CAR T cells) [4]: 99%; % cytolysis, xCELLigence, Huh7, High E:T (10,000 CAR T cells) [4]: 100%; % cytolysis, xCELLigence, Huh7, Low E:T (500 CAR T cells) [4]: 44%; IFNg secretion after 24 h coculture with Hep3B, Luminex, replicate 1 [4]: 37700 pg/mL; IFNg secretion after 24 h coculture with Hep3B, Luminex, replicate 2 [4]: 39400 pg/mL; IFNg secretion after 24 h coculture with Hep3B, Luminex, replicate 3 [4]: 44500 pg/mL
